Key:
[1] = system: midbrain dopaminergic (TH+) neurons; test: MPP+ intoxication model in midbrain cell cultures, survival of DA (TH+) neurons; assay type: cell-based, Wistar rat
Experimental: For this purpose, spontaneously occurring DA cell death was prevented by a treatment combining depolarizing concentrations of K^+ (30 mM) and MK801 (5 μM), a glutamate receptor antagonist used to prevent unwanted excitotoxic insult. The cultures were then exposed to 3 μM MPP between 5 and 7 days in vitro (DIV) to achieve a loss of approximately 50% of DA neurons.
Animals were treated in accordance with the Guide for the Care and Use of Laboratory Animals (National Research Council, 1996), European Directive 86/609, and the guidelines of the local institutional animal care and use committee. Cultures were prepared from the ventral mesencephalon of gestational age 15.5 Wistar rat embryos (Janvier Breeding Center, Le Genest St Isle, France). Dissociated cells in suspension obtained by mechanical trituration of midbrain tissue pieces were seeded at a density of 1.2-1.5×10^5 cells/cm^2 onto tissue culture supports precoated with 1 mg/mL polyethylenimine diluted in borate buffer pH 8.3 as described (Michel et al., 1997. J Neurochem. 69(4):1499-507). The cultures were then maintained in N5 medium supplemented with 5 mM glucose, 5% horse serum, and 0.5% fetal calf serum, except for the first 3 DIV, when the concentration of fetal calf serum was 2.5% to favor initial maturation of the cultures (Guerreiro et al., 2008. Mol Pharmacol. 74(4):980-9). They were fed daily by replacing 70% of the medium. Routinely, mesencephalic cultures were established on Nunc 24-well culture plates (Thermofischer Scientific, Rochester, N.Y.). Note that these cultures contain tyrosine hydroxylase (TH)^+ neurons that were exclusively dopaminergic (Traver et al., 2006. Mol Pharmacol. 70(1):30-40). TH^+ neurons represented approximately 1-2% of the total number of neuronal cells present in these cultures. The evaluation of the survival of DA neurons was performed by counting cells immunopositive for TH as described (Toulorge et al., 2011. Faseb J. 25(8):2563-73).
Treatments with MPP were performed in cultures where the spontaneous death process was prevented by long-term exposure to depolarizing concentrations of K^+ (30 mM), in the presence of the glutamate receptor antagonist MK801 (5 μM) to prevent unwanted excitotoxic insults as described previously (Douhou et al., 2001. J Neurochem. 78(1): 163-74). Treatments with MPP and potential neuroprotective molecules were carried out between 5 and 7 DIV.
The cultures were fixed for 12 min using 4% formaldehyde in Dulbecco's phosphate-buffered saline (PBS), then washed twice with PBS before an incubation step at 4° C. for 24 h with the following antibodies. A monoclonal anti-TH antibody diluted 1/5000 (ImmunoStar, Inc., Hudson, Wis.) was used to assess the survival of DA neurons. Antibody was diluted in PBS containing 0.2% Triton X-100. Detection of the primary antibodies was performed with an Alexa Fluor-488 conjugate of an anti-mouse IgG antibody.

[2] = system: IL-10; test: IL-10 levels in mice after intravenous injection (plasma ELISA); conditions: mouse
Experimental: To test whether the anti-inflammatory properties of agonistic anti-CD38 antibodies were also observe in vivo, we intravenously injected anti-CD38 antibody clone HB7 (15 mg/kg) to mice.
Blood samples collected in collection tube (Microvette® 500 EDTA-K3, […]) were centrifuged at 3000 rotations per minute during 15 minutes. Supernatants (plasma) were collected and transferred into tubes and froze at −80° C. for further analysis. IL-10 levels in plasma samples were assayed using an ELISA IL-10 kit (BioLegend®) according to the indications for use specified by the manufacturer.

B1: sCD31: soluble form of CD31; murine sCD31 with SEQ ID NO: 3 (protein)
chain: MLLALGLTLVLYASLQAEENSFTINSIHMESLPSWEVMNGQQLTLECLVDISTTSKSRSQHRVLFYKDDAMVYNVTSREHTESYVIPQARVFHSGKYKCTVMLNNKEKTTIEYEVKVHGVSKPKVTLDKKEVTEGGVVTVNCSLQEEKPPIFFKIEKLEVGTKFVKRRIDKTSNENFVLMEFPIEAQDHVLVFRCQAGILSGFKLQESEPIRSEYVTVQESFSTPKFEIKPPGMIIEGDQLHIRCIVQVTHLVQEFTEIIIQKDKAIVATSKQSSEAVYSVMAMVEYSGHYTCKVESNRISKASSIMVNITELFPKPKLEFSSSRLDQGELLDLSCSVSGTPVANFTIQKEETVLSQYQNFSKIAEESDSGEYSCTAGIGKVVKRSGLVPIQVCEMLSKPSIFHDAKSEIIKGHAIGISCQSENGTAPITYHLMKAKSDFQTLEVTSNDPATFTDKPTRDMEYQCRADNCHSHPAVFSEILRVRVIAPVDEVVISILSSNEVQSGSEMVLRCSVKEGTSPITFQFYKEKEDRPFHQAVVNDTQAFWHNKQASKKQEGQYYCTASNRASSMRTSPRSSTLAVRVFL
modifications: Soluble CD31 (sCD31)
EC50 of prevention of MPP+-induced DA cell loss ([1]; 3 μM MPP+ between 5 and 7 DIV, sCD31 during the intoxication period): 0.036 µg/mL
neuroprotective effect against MPP+-induced DA cell death ([1]; 3 μM MPP+ between 5 and 7 DIV, test substance up to 1 μg/mL): prevented
neuroprotective effect in the presence of antagonistic anti-CD38 antibody clone AT13/5 ([1]; 3 μM MPP+, test substance 1 μg/mL, AT13/5 1 μg/mL): antagonized
neuroprotective effect in the presence of anti-CD31 antibody clone Moon-1 ([1]; 3 μM MPP+, test substance 1 μg/mL, Moon-1 1 μg/mL): antagonized
neuroprotective effect in the presence of antagonistic anti-CD38 antibody clone OKT10 ([1]; 3 μM MPP+, test substance 1 μg/mL, OKT10 1 μg/mL): antagonized
neuroprotective effect in the presence of endosidin2 ([1]; 3 μM MPP+, test substance 1 μg/mL, endosidin2 40 μM): antagonized
neuroprotective effect in the presence of the tyrosine kinase inhibitor genistein ([1]; 3 μM MPP+, test substance 1 μg/mL, genistein 10 nM): antagonized
neuroprotective effect in the presence of the lysosomal exocytosis inhibitor vacuolin-1 ([1]; 3 μM MPP+, test substance 1 μg/mL, vacuolin-1 10 μM): antagonized
release of IL-10 in vivo (conclusion in words) [2]: strong release

— patent publication US20220089765A1, “CD31 COMPETITORS AND USES THEREOF” (ENCEFA, priority 2019, published 2022)
